B1: Ras-related protein Rap-2a (Homo sapiens), P10114 (parent)
chain: MREYKVVVLGSGGVGKSALTVQFVTGTFIEKYDPTIEDFYRKEIEVDSSPSVLEILDTAGTEQFASMRDLYIKNGQGFILVYSLVNQQSFQDIKPMRDQIIRVKRYEKVPVILVGNKVDLESEREVSSSEGRALAEEWGCPFMETSAKSKTMVDELFAEIVRQMNYAAQPDKDDPCCSACNIQ

Variants of: B1
Conditions: with mink1_human MINK1, Q8N4C8
Chain of mink1_human MINK1, Q8N4C8 (Q8N4C8 whole entry, looked up): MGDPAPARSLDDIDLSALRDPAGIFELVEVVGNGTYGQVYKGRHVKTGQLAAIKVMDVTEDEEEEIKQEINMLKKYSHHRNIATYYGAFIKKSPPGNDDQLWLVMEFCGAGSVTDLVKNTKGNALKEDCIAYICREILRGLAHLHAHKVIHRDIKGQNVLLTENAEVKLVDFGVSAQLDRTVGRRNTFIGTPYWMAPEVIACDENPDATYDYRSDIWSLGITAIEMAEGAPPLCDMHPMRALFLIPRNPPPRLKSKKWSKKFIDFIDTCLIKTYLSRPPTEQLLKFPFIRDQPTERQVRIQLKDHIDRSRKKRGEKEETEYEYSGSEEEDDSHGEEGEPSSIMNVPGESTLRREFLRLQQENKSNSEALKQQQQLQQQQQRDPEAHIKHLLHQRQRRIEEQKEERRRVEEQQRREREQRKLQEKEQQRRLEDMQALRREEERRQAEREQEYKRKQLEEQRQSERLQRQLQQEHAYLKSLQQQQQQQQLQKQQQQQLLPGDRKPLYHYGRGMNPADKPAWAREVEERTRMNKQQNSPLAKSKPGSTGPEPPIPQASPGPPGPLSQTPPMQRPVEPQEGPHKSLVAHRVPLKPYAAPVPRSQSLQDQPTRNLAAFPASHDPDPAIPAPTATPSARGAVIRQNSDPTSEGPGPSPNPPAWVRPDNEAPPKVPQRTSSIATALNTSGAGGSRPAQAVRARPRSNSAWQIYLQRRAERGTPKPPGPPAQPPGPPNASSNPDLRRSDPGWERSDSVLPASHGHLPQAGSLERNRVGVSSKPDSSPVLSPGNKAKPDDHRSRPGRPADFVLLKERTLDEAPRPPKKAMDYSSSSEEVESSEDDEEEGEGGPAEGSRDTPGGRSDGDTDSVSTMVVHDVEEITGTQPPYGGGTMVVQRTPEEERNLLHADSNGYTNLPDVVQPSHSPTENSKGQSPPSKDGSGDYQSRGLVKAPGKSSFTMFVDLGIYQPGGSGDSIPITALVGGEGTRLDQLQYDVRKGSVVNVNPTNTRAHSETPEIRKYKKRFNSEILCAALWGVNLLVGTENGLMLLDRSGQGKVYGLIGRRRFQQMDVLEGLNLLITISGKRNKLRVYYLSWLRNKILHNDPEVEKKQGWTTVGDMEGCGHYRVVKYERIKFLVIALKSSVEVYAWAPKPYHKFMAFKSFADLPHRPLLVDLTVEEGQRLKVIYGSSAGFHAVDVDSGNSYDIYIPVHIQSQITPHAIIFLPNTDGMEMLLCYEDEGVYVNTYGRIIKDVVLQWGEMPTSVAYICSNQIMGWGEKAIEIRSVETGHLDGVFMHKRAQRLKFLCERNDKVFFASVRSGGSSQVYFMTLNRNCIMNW

effect of a mutation on the interaction | Variant
disrupting interaction | F39S
disrupting interaction | S17N

Variants of: B1
Conditions: with mink1_mouse Mink1, Q9JM52
Chain of mink1_mouse Mink1, Q9JM52 (Q9JM52 whole entry): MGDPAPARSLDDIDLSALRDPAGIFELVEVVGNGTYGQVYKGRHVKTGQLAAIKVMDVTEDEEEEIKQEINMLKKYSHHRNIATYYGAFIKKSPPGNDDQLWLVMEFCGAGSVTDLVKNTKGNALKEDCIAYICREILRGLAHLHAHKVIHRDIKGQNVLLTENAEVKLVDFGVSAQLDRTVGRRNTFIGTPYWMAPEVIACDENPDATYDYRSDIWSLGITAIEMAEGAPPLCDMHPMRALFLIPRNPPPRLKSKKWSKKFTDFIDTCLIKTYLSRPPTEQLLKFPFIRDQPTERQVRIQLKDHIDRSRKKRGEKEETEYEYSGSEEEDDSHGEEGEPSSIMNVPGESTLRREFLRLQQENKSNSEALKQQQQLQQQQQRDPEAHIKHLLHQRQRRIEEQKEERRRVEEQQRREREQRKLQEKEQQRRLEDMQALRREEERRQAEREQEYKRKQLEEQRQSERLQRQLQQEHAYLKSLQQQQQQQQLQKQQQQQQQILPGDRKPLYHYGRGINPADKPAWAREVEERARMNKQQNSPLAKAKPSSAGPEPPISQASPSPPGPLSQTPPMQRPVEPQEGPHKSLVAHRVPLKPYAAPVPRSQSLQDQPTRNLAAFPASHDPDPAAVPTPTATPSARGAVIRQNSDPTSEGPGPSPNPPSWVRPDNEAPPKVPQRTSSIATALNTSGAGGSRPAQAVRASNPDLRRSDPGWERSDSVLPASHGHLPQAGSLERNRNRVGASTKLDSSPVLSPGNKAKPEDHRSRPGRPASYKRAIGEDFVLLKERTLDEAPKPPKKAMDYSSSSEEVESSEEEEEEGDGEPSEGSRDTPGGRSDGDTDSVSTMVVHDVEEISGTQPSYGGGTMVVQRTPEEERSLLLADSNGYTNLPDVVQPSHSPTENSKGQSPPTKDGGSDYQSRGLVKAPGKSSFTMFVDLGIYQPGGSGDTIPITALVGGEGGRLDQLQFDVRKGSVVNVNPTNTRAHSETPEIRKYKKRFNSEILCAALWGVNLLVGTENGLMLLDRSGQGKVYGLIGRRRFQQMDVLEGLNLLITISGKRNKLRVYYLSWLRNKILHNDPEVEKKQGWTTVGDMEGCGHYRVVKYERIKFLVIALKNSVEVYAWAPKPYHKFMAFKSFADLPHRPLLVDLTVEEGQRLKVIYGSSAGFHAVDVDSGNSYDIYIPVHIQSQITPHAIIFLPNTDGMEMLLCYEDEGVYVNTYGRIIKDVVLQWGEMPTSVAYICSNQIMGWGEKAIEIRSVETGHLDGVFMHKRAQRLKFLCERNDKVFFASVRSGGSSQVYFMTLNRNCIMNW

effect of a mutation on the interaction | Variant
decreasing interaction | F39S

From IntAct's records for PubMed 18930710
